Laboratory results published in US20240043568A1 (KEYMED BIOSCIENCES, published 2024).
Numbering of substitutions follows the chain as printed.

T1: human CD3εγ-Fc heterodimer (human)
T1 construct: also called human CD3 εγ protein; recombinant CD3 εγ protein
T1 chain 1: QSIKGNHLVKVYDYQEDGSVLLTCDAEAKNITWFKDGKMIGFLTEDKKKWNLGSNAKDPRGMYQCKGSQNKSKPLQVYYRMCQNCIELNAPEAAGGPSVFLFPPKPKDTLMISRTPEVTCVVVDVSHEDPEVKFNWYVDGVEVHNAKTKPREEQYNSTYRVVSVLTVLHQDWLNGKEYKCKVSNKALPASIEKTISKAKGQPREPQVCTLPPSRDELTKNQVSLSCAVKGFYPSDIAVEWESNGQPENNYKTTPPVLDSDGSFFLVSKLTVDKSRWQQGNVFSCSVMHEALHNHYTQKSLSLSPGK
T1 chain 2: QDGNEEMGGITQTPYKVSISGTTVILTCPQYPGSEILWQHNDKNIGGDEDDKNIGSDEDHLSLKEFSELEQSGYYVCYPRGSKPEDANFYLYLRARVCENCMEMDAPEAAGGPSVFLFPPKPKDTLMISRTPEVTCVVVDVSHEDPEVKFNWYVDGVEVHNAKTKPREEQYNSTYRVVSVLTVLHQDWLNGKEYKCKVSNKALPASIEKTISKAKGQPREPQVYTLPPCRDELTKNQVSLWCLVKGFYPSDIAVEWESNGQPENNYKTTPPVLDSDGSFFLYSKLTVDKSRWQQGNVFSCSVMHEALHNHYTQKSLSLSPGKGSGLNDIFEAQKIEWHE

B1: 46C3 (antibody, V domains shown)
VH: QVQLQQSGPELVKPGASVKISCKASGYTFTDYYINWVKQKPGQGLEWIGWIYPGSGNTKYNEKFKGKATLTVDTSSSTAYMQLSSLTSEDTAVYFCARGRWGQGTLVTVSA
VL: DVVMTQTPLSLPVSLRDQASISCRSSQSLVHSNGNTYLHWYLQKPGQSPKLLIYKVSNRFSGVPDRFSGSGSGTDFTLKISRVEAEDLGVYFCSQSTHVPRTFGGGTKLELK
notes: Chimeric human IgG1
B2: 47B6 (antibody, V domains shown)
VH: QVQLQQSGAELMKPGASVKISCKATGYTFSSYWIEWVKQRPGHGLEWIGEILPGSGSTNYNEKFKGKATFTADTSSNTAYMQLSSLTSEDSAVYYCARGYWGQGTLVTVSA
VL: B1 VL with V2I, T7A, R16G, L111I
notes: Chimeric human IgG1
B3: aCD3-hVH1/VL5 (antibody, V domains shown)
VH: EVQLVESGGGLVQPGGSLRLSCAASGFTFNTYAMNWVRQAPGKGLEWVSRIRSKYNNYATYYADSVKDRFTISRDDSKNTLYLQMNSLRAEDTAVYYCVRHGNFGNSYVSWFAYWGQGTLVTVSS
VL: QAVVTQEPSLTVSPGGTVTLTCRSSTGAVTTSNYANWVQEKPGQAPRGLIGGTNKRAPWTPARFSGSLLGGKAALTITGAQAEDEAEYYCVLWYSNLWVFGGGTKLTVL
notes: Humanized CD3 antibody with human IgG4 CH1-CH3 and a lambda light chain constant region
B4: aCD3-hVH9/VL3 (antibody, V domains shown)
VH: B3 VH with Q39K, S49G, T80S, R89K, A90T
VL: B3 VL with Q1E, R23E, T26D, R56E, I77L, T78S, A82P, V91A
notes: Human IgG4, lambda
B5: aCD3-hVH8/VL5 (antibody, V domains shown)
VH: B3 VH with Q39K, S49G, T80S, R89K, A90T, V99A
VL: B3 VL
notes: Human IgG4, lambda
B6: aCD3-hVH9/VL1 (antibody, V domains shown)
VH: B3 VH with Q39K, S49G, T80S, R89K, A90T
VL: B3 VL with E40Q, I77L, T78S, A82P, V91A
notes: Human IgG4, lambda
B7: aCD3-hVH8/VL1 (antibody, V domains shown)
VH: B3 VH with Q39K, S49G, T80S, R89K, A90T, V99A
VL: B3 VL with E40Q, I77L, T78S, A82P, V91A
notes: Human IgG4, lambda
B8: h49G8VHv6VKv2 (antibody, V domains shown)
VH: QVQLVQSGAEVKKPGSSVKVSCKASGYTFADYEIHWVRQAPGQGLEWMGAIHPGSGGTAYAQKFQGRVTLTADESSTTAYMELSSLRSEDTAVYYCTRYYSFAYWGQGTLVTVSS
VL: DVVMTQSPLSLPVTPGEPASISCRSSQSIVHSNYNTYLEWYLQKPGQSPQLLIYKVSNRFSGVPDRFSGSGSGTDFTLKISRVEAEDVGVYFCLQVTHVPLTFGQGTKLEIK
notes: Humanized 49G8; The name is read as h49G8VHv6 plus h49G8VKv2
B9: h49G8VHv6VKv6 (antibody, V domains shown)
VH: B8 VH
VL: B8 VL with Y34A
notes: Humanized 49G8
B10: h49G8VHv6VKv4 (antibody, V domains shown)
VH: B8 VH
VL: B8 VL with Y34S
notes: Humanized 49G8
B11: h49G8VHv6VKv3 (antibody, V domains shown)
VH: B8 VH
VL: B8 VL with Y34G
notes: Humanized 49G8
B12: h49G8VHv6VKv5 (antibody, V domains shown)
VH: B8 VH
VL: B8 VL with Y34T
notes: Humanized 49G8

Experiments:
human GPC3 on cells [1] = molecular target: T2, human GPC3 on cells (human, UniProt P51654 25-563); assay: flow cytometry, CHO-human GPC3 cells
T2 construct: whole, on cells; One molecule is used for both CHO-hGPC3 transfectants and GPC3+ HepG2 cells; The assay field names the cell; also called CHO-hGPC3 (clone 2B10); CHO-human GPC3
Experimental: The binding of the antibodies to human GPC3 stably-transfected cells was detected by FACS. CHO-human GPC3 stably-transfected cells prepared in Example 1 in the logarithmic growth phase were adjusted to 5×10⁵ cells/ml with 4% calf serum (Hyclone, SH30626.06). 100 μl/well of cell suspension was added to a 96-well U-plate, and centrifuged at 300 g for 5 min. The supernatant was discarded. 100 μL of gradient diluted antibodies (initial concentration 200 nM, 3-fold dilution, 12 gradients) was added to each well and incubated at 4° C. for 45 min. The secondary antibody Alexa Fluro647 labeled goat anti-human IgG Fc (1:300 dilution) was added at 50 μL/well, incubated on ice for 45 minutes, and detected by flow cytometry.

[2] = molecular target: T3, recombinant human GPC3 protein (human, UniProt P51654 25-563); assay: BLI (Octet), antibody on Protein A probe
T3 construct: also called human GPC3 full-length protein; recombinant GPC3 protein
Experimental: (§1) Using BLI technology (Octet), the antibody to be tested was captured on the Protein A probe. The binding capacity with human GPC3 protein (10 μg/ml as the initial concentration, 2-fold gradient, a total of 5 concentration points) was detected. The affinity constant KD was obtained according to the association and dissociation rates.

human CD3 on T cells = molecular target: T4, human CD3 on T cells (human, UniProt P07766 23-207); assay: flow cytometry, Jurkat cells
T4 construct: whole, on cells; The target is the native CD3 complex on cells; The recombinant antigen used elsewhere is the εγ heterodimer; also called CD3 on Jurkat cells; CD3 on human peripheral blood CD4+ and CD8+ T cells
Experimental: Jurkat cells in the logarithmic growth phase were taken, blocked with 3% BSA for 30 min, and added to 96-well U-plate at 5×10⁴ cells per well. The supernatant was discarded after centrifugation. 50 μL of gradient diluted antibody was added (antibody concentration: from 30 ng/mL, 3-fold dilution for 5 gradients) per well, and incubated at 4° C. for 1 hour. […] After washing, 50 μL PBS was added per well to perform resuspending for FACS (iQue, intellicyt) assay (the results are seen in FIG. 13, and Table 10).

[3] = molecular target: T1, human CD3εγ-Fc heterodimer; assay: ELISA, coated human CD3εγ protein
Experimental: Human CD3 εγ protein was coated overnight at 4° C. After blocking with 2% skim milk, different dilutions of CD3 antibodies was added to each well and incubated for 1 hour. The secondary antibody HPR-labeled goat anti-human IgG Fc was added. After being developed by the TMB solution, the reaction was stopped with the concentrated sulfuric acid, and the absorbance was read at 450 nm (the results are shown in FIG. 12 and Table 8).

[4] = molecular target: T3, recombinant human GPC3 protein; assay: BLI (Octet), antibody on Protein A probe; remark: listed apart in the source
Experimental: as §1, with “rates. The 49G8 humanized antibody binds to the recombinant GPC3 protein with high affinity. The affinity data is seen in Table 6.” for “rates.”

human GPC3 on cells [5] = molecular target: T2, human GPC3 on cells; assay: flow cytometry on human GPC3-CHO stably-transfected cells, MFI
[6] = molecular target: T3, recombinant human GPC3 protein; assay: ELISA on coated recombinant human GPC3 protein, OD450 [panel Recombinant human GPC3 protein]
[7] = molecular target: T5, recombinant cynomolgus monkey GPC3 full-length protein (cynomolgus monkey, UniProt A0A2K5VK50 24-558); assay: ELISA on coated recombinant cynomolgus monkey GPC3 protein, OD450 [panel Recombinant cynomolgus monkey GPC3 protein]
[8] = molecular target: T3, recombinant human GPC3 protein; assay: SPR (Biacore T200), antibody on Protein A chip, GPC3 as analyte
Experimental: (§2) Humanized antibodies with higher affinity were selected and compared for binding to human and cynomolgus monkey GPC3. The humanized antibody h49G8VHv6VKv3 was captured by the Protein A chip (GE healthcare). The recombinant proteins of human and cynomolgus monkey GPC3 diluted in gradient (5 μg/ml as the initial concentration, 2-fold gradient, 5 concentration points in total) were flowed through the chip at a flow rate of 30 μL/min, with a binding time of 150 seconds and dissociation time of 600 seconds. The kinetic constant was fitted using Biacore T200 evaluation software with a Langmuir 1:1 kinetics model. The humanized antibody h49G8VHv6VKv3 binds to human and cynomolgus monkey GPC3 with high affinity. […] The affinity data is seen in Table 7.

[9] = molecular target: T5, recombinant cynomolgus monkey GPC3 …; assay: as above
Experimental: as §2

Binder | EC50 [3] | Kd [4] | koff [4] | kon [4] | EC50 (read off the curve) (human GPC3 on cells [5]) | EC50 (read off the curve) [6] | EC50 (read off the curve) [7] | also measured
B1 |  |  |  |  |  |  |  | EC50 (human GPC3 on cells [1]): 0.46 nM; Kd [2]: 24.3 nM; koff [2]: 0.00154 s⁻¹; kon [2]: 63600 M⁻¹ s⁻¹
B2 |  |  |  |  |  |  |  | EC50 (human GPC3 on cells [1]): 0.38 nM; Kd [2]: 48.2 nM; koff [2]: 0.00149 s⁻¹; kon [2]: 30800 M⁻¹ s⁻¹
B3 | 0.6 nM |  |  |  |  |  |  | EC50 (human CD3 on T cells): 10 nM
B4 | 0.7 nM |  |  |  |  |  |  | 
B5 | 0.74 nM |  |  |  |  |  |  | 
B6 | 0.49 nM |  |  |  |  |  |  | EC50 (human CD3 on T cells): 7 nM
B7 | 0.65 nM |  |  |  |  |  |  | EC50 (human CD3 on T cells): 15 nM
B8 |  | 2 nM | 0.000187 s⁻¹ | 93600 M⁻¹ s⁻¹ | ~2 nM | ~0.03 nM | ~0.03 nM | 
B9 |  | 2.38 nM | 0.00022 s⁻¹ | 92400 M⁻¹ s⁻¹ | ~2 nM | ~0.03 nM | ~0.03 nM | 
B10 |  | 2.28 nM | 0.000205 s⁻¹ | 89900 M⁻¹ s⁻¹ | ~2 nM | ~0.03 nM | ~0.03 nM | 
B11 |  | 1.42 nM | 0.000134 s⁻¹ | 94800 M⁻¹ s⁻¹ | ~2 nM | ~0.03 nM | ~0.03 nM | Kd [8]: 1.39 nM; koff [8]: 0.000351 s⁻¹; kon [8]: 253000 M⁻¹ s⁻¹; Kd [9]: 2.1 nM; koff [9]: 0.00025 s⁻¹; kon [9]: 119000 M⁻¹ s⁻¹
B12 |  | 2.15 nM | 0.000193 s⁻¹ | 90000 M⁻¹ s⁻¹ | ~2 nM | ~0.03 nM | ~0.03 nM | 
